Residue numbers refer to the chain shown, from its start.
B1: AB380 (antibody, V domains shown)
VH: EIQLVQSGAEVKKPGASVKVSCKASGYTFTNYGMNWVRQAPGQGLEWMGWINTYTGEPTYADDFKGRFTFTLDTSTSTAYMELSSLRSEDTAVYFCARKFLTTVVVTDYAMDYWGQGTTVTVSS
VL: DIVMTQSPAFLSVTPGEKVTITCRASQDISNYLNWYQQKPDQAPKLLIYYTSRLQSGVPSRFSGSGSGTDYTFTISSLEAEDAATYYCQQGNTLPPTFGQGTKLEIK
notes: Full-length humanized antibody made in HEK 293-6E; also called hMAK199VH.2a/hMAK199VL.2b
B2: AB373 (antibody, V domains shown)
VH: B1 VH with I2V, F68V, F70M, L72T, F95Y
VL: B1 VL with A43T, P44V, Y87F
notes: Full-length humanized antibody made in HEK 293-6E; also called hMAK199VH.2/hMAK199VL.2a
B3: AB369 (antibody, V domains shown)
VH: B1 VH with I2V, F68V, F70M, L72T, F95Y
VL: DIQMTQSPSSLSASVGDRVTITCRASQDISNYLNWYQQKPGKAPKLLIYYTSRLQSGVPSRFSGSGSGTDFTLTISSLQPEDFATYYCQQGNTLPPTFGQGTKLEIK
notes: Full-length humanized antibody made in HEK 293-6E; also called hMAK199VH.2/hMAK199VL.1
B4: AB375 (antibody, V domains shown)
VH: B1 VH
VL: B3 VL
notes: Full-length humanized antibody made in HEK 293-6E; also called hMAK199VH.2a/hMAK199VL.1
B5: AB371 (antibody, V domains shown)
VH: B1 VH with I2V, F68V, F70M, L72T, F95Y
VL: B3 VL with F71Y
notes: Full-length humanized antibody made in HEK 293-6E; also called hMAK199VH.2/hMAK199VL.1b
B6: AB379 (antibody, V domains shown)
VH: B1 VH
VL: B1 VL with A43T, P44V, Y87F
notes: Full-length humanized antibody made in HEK 293-6E; also called hMAK199VH.2a/hMAK199VL.2a
B7: AB386 (antibody, V domains shown)
VH: B1 VH with F68V, L72T, F95Y
VL: B1 VL
notes: Full-length humanized antibody made in HEK 293-6E; also called hMAK199VH.2b/hMAK199VL.2b
B8: AB370 (antibody, V domains shown)
VH: B1 VH with I2V, F68V, F70M, L72T, F95Y
VL: B3 VL with A43T, P44V, F71Y, Y87F
notes: Full-length humanized antibody made in HEK 293-6E; also called hMAK199VH.2/hMAK199VL.1a
B9: AB376 (antibody, V domains shown)
VH: B1 VH
VL: B3 VL with A43T, P44V, F71Y, Y87F
notes: Full-length humanized antibody made in HEK 293-6E; also called hMAK199VH.2a/hMAK199VL.1a
B10: AB381 (antibody, V domains shown)
VH: B1 VH with F68V, L72T, F95Y
VL: B3 VL
notes: Full-length humanized antibody made in HEK 293-6E; also called hMAK199VH.2b/hMAK199VL.1
B11: AB374 (antibody, V domains shown)
VH: B1 VH with I2V, F68V, F70M, L72T, F95Y
VL: B1 VL
notes: Full-length humanized antibody made in HEK 293-6E; also called hMAK199VH.2/hMAK199VL.2b
B12: AB383 (antibody, V domains shown)
VH: B1 VH with F68V, L72T, F95Y
VL: B3 VL with F71Y
notes: Full-length humanized antibody made in HEK 293-6E; also called hMAK199VH.2b/hMAK199VL.1b
B13: AB385 (antibody, V domains shown)
VH: B1 VH with F68V, L72T, F95Y
VL: B1 VL with A43T, P44V, Y87F
notes: Full-length humanized antibody made in HEK 293-6E; also called hMAK199VH.2b/hMAK199VL.2a
B14: AB382 (antibody, V domains shown)
VH: B1 VH with F68V, L72T, F95Y
VL: B3 VL with A43T, P44V, F71Y, Y87F
notes: Full-length humanized antibody made in HEK 293-6E; also called hMAK199VH.2b/hMAK199VL.1a

Experiments:
[1] = target: T1, Recombinant Human TNF-α/TNFSF1A (human, UniProt P01375 77-233); assay: SPR (BIACORE), antibody captured, TNFα in solution
T1 construct: also called hTNF-α; huTNFα
T1 sequence (P01375 77-233 limits assumed): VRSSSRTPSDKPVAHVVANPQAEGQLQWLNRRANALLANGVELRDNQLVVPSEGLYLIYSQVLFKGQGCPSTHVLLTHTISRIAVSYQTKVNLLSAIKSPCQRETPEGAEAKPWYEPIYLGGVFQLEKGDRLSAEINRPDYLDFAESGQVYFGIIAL
Method: The BIACORE assay (Biacore, Inc, Piscataway, N.J.) determines the affinity of antibodies with kinetic measurements of on-rate and off-rate constants. Binding of antibodies to a target antigen (for example, a purified recombinant target antigen) is determined by surface plasmon resonance-based measurements with a Biacore® 1000 or 3000 instrument (Biacore® AB, Uppsala, Sweden) using running HBS-EP (10 mM HEPES [pH 7.4], 150 mM NaCl, 3 mM EDTA, and 0.005% surfactant P20) at 25° C. All chemicals are obtained from Biacore® AB (Uppsala, Sweden) or otherwise from a different source as described. For example, approximately 5000 RU of goat anti-mouse IgG, (Fcγ), fragment specific polyclonal antibody (Pierce Biotechnology Inc, Rockford, Ill.) diluted in 10 mM sodium acetate (pH 4.5) is directly immobilized across a CM5 research grade biosensor chip using a standard amine coupling kit according to manufacturer's instructions and procedures at 25 μg/ml. Unreacted moieties on the biosensor surface are blocked with ethanolamine. Modified carboxymethyl dextran surface in flowcell 2 and 4 is used as a reaction surface. Unmodified carboxymethyl dextran without goat anti-mouse IgG in flow cell 1 and 3 is used as the reference surface. For kinetic analysis, rate equations derived from the 1:1 Langmuir binding model are fitted simultaneously to association and dissociation phases of all eight injections (using global fit analysis) with the use of Biaevaluation 4.0.1 software. Purified antibodies are diluted in HEPES-buffered saline for capture across goat anti-mouse IgG specific reaction surfaces. Antibodies to be captured as a ligand (25 μg/ml) are injected over reaction matrices at a flow rate of 5 μl/minute. The association and dissociation rate constants, kₒₙ (M⁻¹ s⁻¹) and koff (s⁻¹), are determined under a continuous flow rate of 25 μl/minute. Rate constants are derived by making kinetic binding measurements at different antigen concentrations ranging from 10-200 nM. The equilibrium dissociation constant (M) of the reaction between antibodies and the target antigen is then calculated from the kinetic rate constants by the following formula: KD=koff/kₒₙ. Binding is recorded as a function of time and kinetic rate constants are calculated. In this assay, on-rates as fast as 10⁶ M⁻¹ s⁻¹ and off-rates as slow as 10⁻⁶ s⁻¹ can be measured.

[2] = target: T1, Recombinant Human TNF-α/TNFSF1A; assay: cell-based or functional assay

Binder | Kd [1] | koff [1] | kon [1] | TNFα Neutralization Assay IC50 nM (L929 cells) [2]
B1 | 1.8 nM | 0.0015 s⁻¹ | 820000 M⁻¹ s⁻¹ | > 20 nM
B2 | 1.2 nM | 0.0012 s⁻¹ | 940000 M⁻¹ s⁻¹ | > 20 nM
B3 | 1.1 nM | 0.001 s⁻¹ | 940000 M⁻¹ s⁻¹ | > 20 nM
B4 | 1.3 nM | 0.0011 s⁻¹ | 900000 M⁻¹ s⁻¹ | 11.4 nM
B5 | 1.2 nM | 0.0017 s⁻¹ | 1.5e+06 M⁻¹ s⁻¹ | > 20 nM
B6 | 1.8 nM | 0.0016 s⁻¹ | 890000 M⁻¹ s⁻¹ | > 20 nM
B7 | 2.3 nM | 0.0015 s⁻¹ | 660000 M⁻¹ s⁻¹ | > 20 nM
B8 | 1.1 nM | 0.0012 s⁻¹ | 1e+06 M⁻¹ s⁻¹ | 3.78 nM
B9 | 1.3 nM | 0.0014 s⁻¹ | 1.1e+06 M⁻¹ s⁻¹ | 3.65 nM
B10 | 1.9 nM | 0.0017 s⁻¹ | 860000 M⁻¹ s⁻¹ | 5.9 nM
B11 | 1.3 nM | 0.0015 s⁻¹ | 1.2e+06 M⁻¹ s⁻¹ | > 20 nM
B12 | 2.1 nM | 0.0018 s⁻¹ | 830000 M⁻¹ s⁻¹ | > 20 nM
B13 | 2.2 nM | 0.0019 s⁻¹ | 880000 M⁻¹ s⁻¹ | 9.76 nM
B14 | 2 nM | 0.0015 s⁻¹ | 740000 M⁻¹ s⁻¹ | 1.19 nM

From patent US20150111251A1 (AbbVie / Abbott, published 2015)
